# Test results from patent publication US20250270339A1.
# Legend:
# [1] = target: Cyno TfR apical permuted N-term Avi-His (cynomolgus); test: SPR (Carterra LSA), 2+2 captured
# [2] = target: huTfR Apical Domain-Avi-His (human); test: SPR (Carterra LSA), 2+2 captured
# Chain of huTfR Apical Domain-Avi-His (human) (chain, as listed by the source limits assumed): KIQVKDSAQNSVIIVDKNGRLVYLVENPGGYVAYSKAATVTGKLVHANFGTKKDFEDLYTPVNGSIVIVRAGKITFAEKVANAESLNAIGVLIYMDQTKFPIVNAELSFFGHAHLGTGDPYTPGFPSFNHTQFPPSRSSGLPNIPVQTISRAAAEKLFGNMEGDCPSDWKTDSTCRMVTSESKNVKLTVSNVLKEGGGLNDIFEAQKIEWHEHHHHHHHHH
# Chain of Cyno TfR apical permuted N-term Avi-His (cynomolgus) (chain, as listed by the source limits assumed): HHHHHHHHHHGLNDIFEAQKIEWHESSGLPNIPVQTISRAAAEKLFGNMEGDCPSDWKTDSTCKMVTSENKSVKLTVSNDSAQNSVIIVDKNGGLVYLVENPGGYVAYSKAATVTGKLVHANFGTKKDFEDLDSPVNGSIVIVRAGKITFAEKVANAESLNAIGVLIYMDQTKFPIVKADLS
Binder,Kd [1],Kd [2]
"TFR.15.WH8.1 2+2 anti-TfR bispecific antibody (bispecific antibody, part only; not given: isotype IgG backbone and linker, not shown: another chain or arm of the molecule; a dimerising Fc or GST; large carriers; small tags and cut ends) scFv: QVQLVQSGAEVKKPGASVKVSCKASGYTFTSYYMHWVRQAPGQGLEWMGNIYPGSGSSNYAQKFQGRVTMTRDTSTSTVYMELSSLRSEDTAVYYCTRSSYYGNFDTMDNWGQGTTVTVSSGGSEGKSSGSGSESKSTGGSEIVLTQSPATLSLSPGERATLSCRASSSIRYMNWYQQKPGQAPRRLIYDTSNRATGIPARFSGSGSGTDFTLTISSLEPEDFAVYYCHQRSSYPWTFGGGTKVEIK",17 nM,28 nM
"TFR.15.WH8.1.24H 2+2 anti-TfR bispecific antibody (bispecific antibody, part only; not given: isotype IgG backbone and linker, not shown: another chain or arm of the molecule; a dimerising Fc or GST; large carriers; small tags and cut ends) scFv: QVQLVQSGAEVKKPGASVKVSCKASGYTFTSYYMHWVRQAPGQGLEWMGNIYPGSGSSNYAQKFQGRVTMTRDTSTSTVYMELSSLRSEDTAVYYCTRSHYYGNFDTMDNWGQGTTVTVSSGGSEGKSSGSGSESKSTGGSEIVLTQSPATLSLSPGERATLSCRASSSIRYMNWYQQKPGQAPRRLIYDTSNRATGIPARFSGSGSGTDFTLTISSLEPEDFAVYYCHQRSSYPWTFGGGTKVEIK",2.6 nM,5.6 nM
"TFR.15.WH8.1.24N 2+2 anti-TfR bispecific antibody (bispecific antibody, part only; not given: isotype IgG backbone and linker, not shown: another chain or arm of the molecule; a dimerising Fc or GST; large carriers; small tags and cut ends) scFv: QVQLVQSGAEVKKPGASVKVSCKASGYTFTSYYMHWVRQAPGQGLEWMGNIYPGSGSSNYAQKFQGRVTMTRDTSTSTVYMELSSLRSEDTAVYYCTRSNYYGNFDTMDNWGQGTTVTVSSGGSEGKSSGSGSESKSTGGSEIVLTQSPATLSLSPGERATLSCRASSSIRYMNWYQQKPGQAPRRLIYDTSNRATGIPARFSGSGSGTDFTLTISSLEPEDFAVYYCHQRSSYPWTFGGGTKVEIK",47 nM,140 nM
"TFR.15.WH8.1.26H 2+2 anti-TfR bispecific antibody (bispecific antibody, part only; not given: isotype IgG backbone and linker, not shown: another chain or arm of the molecule; a dimerising Fc or GST; large carriers; small tags and cut ends) scFv: QVQLVQSGAEVKKPGASVKVSCKASGYTFTSYYMHWVRQAPGQGLEWMGNIYPGSGSSNYAQKFQGRVTMTRDTSTSTVYMELSSLRSEDTAVYYCTRSSYHGNFDTMDNWGQGTTVTVSSGGSEGKSSGSGSESKSTGGSEIVLTQSPATLSLSPGERATLSCRASSSIRYMNWYQQKPGQAPRRLIYDTSNRATGIPARFSGSGSGTDFTLTISSLEPEDFAVYYCHQRSSYPWTFGGGTKVEIK",2200 nM,280 nM
"TFR.15.WH8.1.42A 2+2 anti-TfR bispecific antibody (bispecific antibody, part only; not given: isotype IgG backbone and linker, not shown: another chain or arm of the molecule; a dimerising Fc or GST; large carriers; small tags and cut ends) scFv: QVQLVQSGAEVKKPGASVKVSCKASGYTFTSYYMHWVRQAPGQGLEWMGNIYPGSGSSNYAQKFQGRVTMTRDTSTSTVYMELSSLRSEDTAVYYCTRSSYYGNFDTMDNWGQGTTVTVSSGGSEGKSSGSGSESKSTGGSEIVLTQSPATLSLSPGERATLSCRASSSIRAMNWYQQKPGQAPRRLIYDTSNRATGIPARFSGSGSGTDFTLTISSLEPEDFAVYYCHQRSSYPWTFGGGTKVEIK",88 nM,160 nM
"TFR.15.WH8.1.42A.3x(G4S) 2+2 anti-TfR bispecific antibody (bispecific antibody, part only; not given: isotype IgG backbone and linker, not shown: another chain or arm of the molecule; a dimerising Fc or GST; large carriers; small tags and cut ends) scFv: QVQLVQSGAEVKKPGASVKVSCKASGYTFTSYYMHWVRQAPGQGLEWMGNIYPGSGSSNYAQKFQGRVTMTRDTSTSTVYMELSSLRSEDTAVYYCTRSSYYGNFDTMDNWGQGTTVTVSSGGGGSGGGGSGGGGSEIVLTQSPATLSLSPGERATLSCRASSSIRAMNWYQQKPGQAPRRLIYDTSNRATGIPARFSGSGSGTDFTLTISSLEPEDFAVYYCHQRSSYPWTFGGGTKVEIK",74 nM,
"TFR.15.WH8.1.42A.L1 2+2 anti-TfR bispecific antibody (bispecific antibody, part only; not given: isotype IgG backbone and linker, not shown: another chain or arm of the molecule; a dimerising Fc or GST; large carriers; small tags and cut ends) scFv: QVQLVQSGAEVKKPGASVKVSCKASGYTFTSYYMHWVRQAPGQGLEWMGNIYPGSGSSNYAQKFQGRVTMTRDTSTSTVYMELSSLRSEDTAVYYCTRSSYYGNFDTMDNWGQGTTVTVSSSPNSASHSGSAPQTSSAPGSQEIVLTQSPATLSLSPGERATLSCRASSSIRAMNWYQQKPGQAPRRLIYDTSNRATGIPARFSGSGSGTDFTLTISSLEPEDFAVYYCHQRSSYPWTFGGGTKVEIK",100 nM,150 nM
"TFR.15.WH8.1.42A.LH 2+2 anti-TfR bispecific antibody (bispecific antibody, part only; not given: isotype IgG backbone and linker, not shown: another chain or arm of the molecule; a dimerising Fc or GST; large carriers; small tags and cut ends) scFv: EIVLTQSPATLSLSPGERATLSCRASSSIRAMNWYQQKPGQAPRRLIYDTSNRATGIPARFSGSGSGTDFTLTISSLEPEDFAVYYCHQRSSYPWTFGGGTKVEIKGGSEGKSSGSGSESKSTGGSQVQLVQSGAEVKKPGASVKVSCKASGYTFTSYYMHWVRQAPGQGLEWMGNIYPGSGSSNYAQKFQGRVTMTRDTSTSTVYMELSSLRSEDTAVYYCTRSSYYGNFDTMDNWGQGTTVTVSS",60 nM,190 nM
"TFR.15.WH8.1.42Q 2+2 anti-TfR bispecific antibody (bispecific antibody, part only; not given: isotype IgG backbone and linker, not shown: another chain or arm of the molecule; a dimerising Fc or GST; large carriers; small tags and cut ends) scFv: QVQLVQSGAEVKKPGASVKVSCKASGYTFTSYYMHWVRQAPGQGLEWMGNIYPGSGSSNYAQKFQGRVTMTRDTSTSTVYMELSSLRSEDTAVYYCTRSSYYGNFDTMDNWGQGTTVTVSSGGSEGKSSGSGSESKSTGGSEIVLTQSPATLSLSPGERATLSCRASSSIRQMNWYQQKPGQAPRRLIYDTSNRATGIPARFSGSGSGTDFTLTISSLEPEDFAVYYCHQRSSYPWTFGGGTKVEIK",40 nM,62 nM
"TFR.15.WH8.1.42S 2+2 anti-TfR bispecific antibody (bispecific antibody, part only; not given: isotype IgG backbone and linker, not shown: another chain or arm of the molecule; a dimerising Fc or GST; large carriers; small tags and cut ends) scFv: QVQLVQSGAEVKKPGASVKVSCKASGYTFTSYYMHWVRQAPGQGLEWMGNIYPGSGSSNYAQKFQGRVTMTRDTSTSTVYMELSSLRSEDTAVYYCTRSSYYGNFDTMDNWGQGTTVTVSSGGSEGKSSGSGSESKSTGGSEIVLTQSPATLSLSPGERATLSCRASSSIRSMNWYQQKPGQAPRRLIYDTSNRATGIPARFSGSGSGTDFTLTISSLEPEDFAVYYCHQRSSYPWTFGGGTKVEIK",690 nM,510 nM
